{"source": "ChEMBL document CHEMBL2073804", "about": "“Transport of the beta -O-glucuronide conjugate of the tobacco-specific carcinogen 4-(methylnitrosamino)-1-(3-pyridyl)-1-butanol (NNAL) by the multidrug resistance protein 1 (MRP1). Requirement for glutathione or a non-sulfur-containing analog” (J Biol Chem, 2001)", "proteins": {"B1": {"name": "Multidrug resistance-associated protein 1 (Homo sapiens) (protein)", "chain": "MALRGFCSADGSDPLWDWNVTWNTSNPDFTKCFQNTVLVWVPCFYLWACFPFYFLYLSRHDRGYIQMTPLNKTKTALGFLLWIVCWADLFYSFWERSRGIFLAPVFLVSPTLLGITMLLATFLIQLERRKGVQSSGIMLTFWLVALVCALAILRSKIMTALKEDAQVDLFRDITFYVYFSLLLIQLVLSCFSDRSPLFSETIHDPNPCPESSASFLSRITFWWITGLIVRGYRQPLEGSDLWSLNKEDTSEQVVPVLVKNWKKECAKTRKQPVKVVYSSKDPAQPKESSKVDANEEVEALIVKSPQKEWNPSLFKVLYKTFGPYFLMSFFFKAIHDLMMFSGPQILKLLIKFVNDTKAPDWQGYFYTVLLFVTACLQTLVLHQYFHICFVSGMRIKTAVIGAVYRKALVITNSARKSSTVGEIVNLMSVDAQRFMDLATYINMIWSAPLQVILALYLLWLNLGPSVLAGVAVMVLMVPVNAVMAMKTKTYQVAHMKSKDNRIKLMNEILNGIKVLKLYAWELAFKDKVLAIRQEELKVLKKSAYLSAVGTFTWVCTPFLVALCTFAVYVTIDENNILDAQTAFVSLALFNILRFPLNILPMVISSIVQASVSLKRLRIFLSHEELEPDSIERRPVKDGGGTNSITVRNATFTWARSDPPTLNGITFSIPEGALVAVVGQVGCGKSSLLSALLAEMDKVEGHVAIKGSVAYVPQQAWIQNDSLRENILFGCQLEEPYYRSVIQACALLPDLEILPSGDRTEIGEKGVNLSGGQKQRVSLARAVYSNADIYLFDDPLSAVDAHVGKHIFENVIGPKGMLKNKTRILVTHSMSYLPQVDVIIVMSGGKISEMGSYQELLARDGAFAEFLRTYASTEQEQDAEENGVTGVSGPGKEAKQMENGMLVTDSAGKQLQRQLSSSSSYSGDISRHHNSTAELQKAEAKKEETWKLMEADKAQTGQVKLSVYWDYMKAIGLFISFLSIFLFMCNHVSALASNYWLSLWTDDPIVNGTQEHTKVRLSVYGALGISQGIAVFGYSMAVSIGGILASRCLHVDLLHSILRSPMSFFERTPSGNLVNRFSKELDTVDSMIPEVIKMFMGSLFNVIGACIVILLATPIAAIIIPPLGLIYFFVQRFYVASSRQLKRLESVSRSPVYSHFNETLLGVSVIRAFEEQERFIHQSDLKVDENQKAYYPSIVANRWLAVRLECVGNCIVLFAALFAVISRHSLSAGLVGLSVSYSLQVTTYLNWLVRMSSEMETNIVAVERLKEYSETEKEAPWQIQETAPPSSWPQVGRVEFRNYCLRYREDLDFVLRHINVTINGGEKVGIVGRTGAGKSSLTLGLFRINESAEGEIIIDGINIAKIGLHDLRFKITIIPQDPVLFSGSLRMNLDPFSQYSDEEVWTSLELAHLKDFVSALPDKLDHECAEGGENLSVGQRQLVCLARALLRKTKILVLDEATAAVDLETDDLIQSTIRTQFEDCTVLTIAHRLNTIMDYTRVIVLDKGEIQEYGAPSDLLQQRGLFYSMAKDAGLV"}}, "substrate": "CN(CCCC(C[C@@H]1O[C@H](C(=O)O)[C@@H](O)[C@H](O)[C@H]1O)c1cccnc1)N=O", "test": "TP_TRANSPORTER: uptake, in the presence of GSH in membrane vesicle from MRP1-expressing T5 HeLa cell", "type": "functional, cell membranes", "data": [{"protein": "B1", "values": [{"measurement": "Km", "value": 39, "unit": "µM"}]}]}
